In the supplement of paper PMC7125110:
± gives the standard error. This sample holds only a part of the variants without activity.

B1: glmS ribozyme (parent)
chain: AUAAAAGCGCCAGAACUACAGAAAUGUAGUUGACGAGGAGGAGGUUUAUCGAAUUUUCGGCGGAUGCCUCCAAA

Experiments:
Details in all cases: with glucosamine-6-phosphate
glucosamine-6-phosphate [1] = variants of: B1; assay: self-cleavage kobs at 640 uM GlcN6P; higher = faster cleavage; RNA array
Method in brief: (§1)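 Using a hybridised Cy3 probe at 37 °C, barcoded ribozyme variants transcribed in situ by E. coli RNA polymerase on sequenced MiSeq chips were monitored across tiles imaged over ~14 h. The flow contained glucosamine-6-phosphate from 40 μM to 10 mM in HEPES/KCl/Mg(OAc)2 buffer. Signals were normalised to baseline and to non-cleaving reference variants before per-tile medians were fit to one- or two-exponential decays to yield kobs. Weighted Michaelis–Menten fits across concentrations gave kcat and KM.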

glucosamine-6-phosphate [2] = variants of: B1; assay: self-cleavage kobs at 2500 uM GlcN6P; higher = faster cleavage; RNA array
Method in brief: as §1

glucosamine-6-phosphate [3] = variants of: B1; assay: self-cleavage kobs at 10000 uM GlcN6P; higher = faster cleavage; RNA array
Method in brief: as §1

Variant	self-cleavage kobs at 640 uM GlcN6P (glucosamine-6-phosphate [1]) [s⁻¹]	self-cleavage kobs at 2500 uM GlcN6P (glucosamine-6-phosphate [2]) [s⁻¹]	self-cleavage kobs at 10000 uM GlcN6P (glucosamine-6-phosphate [3]) [s⁻¹]
AUAAAAGGGCCAGAACUACAGAAAUGUAGUUGUCGAGGAGGAGGUAUAUCGAAUUUUCGGCGGAUGCCGCCAAA [C8G A33U U46A U69G]	< 1e-05	< 1e-05	–
AUAAAAGCCCCAGAACUACAGAAAUGUAGUCGACGAGGAGGAGGUUUAUCGAAUUUUCGGCGGAUGUCUCCAAA [G9C U31C C67U]	< 1e-05	< 1e-05	–
AUAAAAGCGCCAGAACUACAGAAAUGUAGUUGACGAGGAGGAGGAUUAUCGAAAUUUCGACGGAUCCCUCCAAA [U45A U54A G60A G66C]	< 1e-05	–	–
AUAAAAGCGCCAGAACUACAGAAAUGUAGGUGACGAGGAGGAGGUUUAUCGAAUUAUCGGCGGAUGCGUCCAAA [U30G U56A C68G]	5.24e-05 ± 2.3e-05	–	–
AUAAAAGCGCCAGAACUACAGAAAUGUACUUGACGAGUUGGAGGUUUAUAGAAUUUUCGGCGGAUGCCUCCAAA [G29C G38U A39U C50A]	< 1e-05	< 1e-05	–
AUAAAAGCGCGAGAAAUACAGAAAUGUAGUUGACGAGGAGGAGGUUUAUGGAAUUUUCGGCGGAGGCCUCCAAA [C11G C16A C50G U65G]	0.000148 ± 5.2e-05	–	–
AUAAAAGCGCUAGGACUACAGAAAUGUAGUUGACGAGGCGGAGGUUUAUCGAAUUUUCGGCGGAUGCCUCCAAA [C11U A14G A39C]	0.000206 ± 5.2e-05	0.000528 ± 0.00014	–
AUAAAAGCCCCAGAACUACAGAAAUGUAGUUGUGGAGGAGGAGGUUUAUCGAAUUAUCGGCGGAUGCCUCCAAA [G9C A33U C34G U56A]	< 1e-05	–	–
AUAAAAGCUCCAGACCUACAGAAAUGUAGUUGACGAGGAGGAGGUUUAUCGAAUUUUCGGCGGAUGUCUCCAAA [G9U A15C C67U]	< 1e-05	–	–
AUAAAAGCGCCAGAAUUACAGAAAUGUAGUUGACGAGGAGGAGGUAUAUCGUAUUUUCGGCGGAUGCCUCCAAA [C16U U46A A52U]	< 1e-05	–	–
AUAAAAGCGCCAGCACUACAGAAAUGUAGUUGACGAGGAAGAGGUUUAUCGAAUUUUCGUCGGAUGCCUCCAAA [A14C G40A G60U]	< 1e-05	< 1e-05	–
AUAAAAGCGCUAGAACUACAGAAAUGUAGUUGACGAGGAGGCGGUUUAUCGAACUUUCAACGGAUGCCUCCAAA [C11U A42C U54C G59A G60A]	< 1e-05	< 1e-05	–
AUAAAAGUGCCAGAACUACAGAAAUGUAGUUGACGAGGAGGAGGUUUAUCGAACGUUCGGCGGAUGCCUCCAAA [C8U U54C U55G]	< 1e-05	–	–
AUAAAAGUGCCAGAACUACAGAAAUGUAGUUGACGAGGAGGAGGUUCAUCGAAUUUUCGGCGGAUGGCUCCAAA [C8U U47C C67G]	< 1e-05	–	–
AUAAAAGCGCCCGAACUACAGAAAUGUAGUUGACGAGGAGGAGGUUAAUAGAAUAUUUGGCGGGUGCCUCCAAA [A12C U47A C50A U55A C58U A64G]	< 1e-05	–	–
AUAAAAGAGCCAGAACUACAGAAAUGUAGUUGACGAGGAGGAGGUUUAUGGAAUUUUGGGCAGAUGCCUCCAAA [C8A C50G C58G G62A]	0.000111 ± 3.2e-05	0.000345 ± 8.6e-05	–
AUAAAAGCGCCAGAACUACAGAAAUGUAGUUGACGAGGAGGAGGUGUAUAGAAUUUUCGGCGGAUGGCUCCAAA [U46G C50A C67G]	0.000631 ± 0.00012	0.000506 ± 0.00017	–
AUAAAAGCGCUAGAACUACAGAAAUGUAGGCGACGAGGAGGAGGUUUAUCGAAUUUUCGGCGGAUGCCUCCAAA [C11U U30G U31C]	9.28e-05 ± 2.1e-05	–	–
AUAAAACCGCCGGAACUACAGAAAUGUAGUUGACGAGGAGGAGGUGAAUCGAAUUUUCGGCGGAUGCCUCCAAA [G7C A12G U46G U47A]	< 1e-05	–	–
AUAAAAGCGCCAGCGCUACAGAAAUGUAGUUGACGACGAGGAGGUUUACCGAAUUUUCGGCGGAUGCCUCCAAA [A14C A15G G37C U49C]	< 1e-05	–	–
AUAAAAGCGCGAGAACUACAGAAAUGUAGUUGACGACGGGGAGGUUUAUCGAAUUUUCGGCGGAUGCCUCCAAA [C11G G37C A39G]	< 1e-05	< 1e-05	–
AUAAAAGCGCCAGACCUACAGAAAUGUACUUGACGAGGAGGAGGUUUAUCGAAUUUUCGUCGGAUGCCUCCAAA [A15C G29C G60U]	< 1e-05	< 1e-05	< 1e-05
AUAAAAGCGCCAGAACUACAGAAAUGUAGCUUACGAGGAGGAGGUUAAUCGAAUUUUCGGCGGAUGCCUCCAAA [U30C G32U U47A]	0.000115 ± 3.3e-05	0.000106 ± 3e-05	–
AUAAAAGCGCCAGAACUACAGAAAUGUAGUUUUCGAGGAGGAGGAUUAUCGAAUUUUCGGCGGAUGCCUCCAAA [G32U A33U U45A]	< 1e-05	–	–
AUAAAAGCGCCAGAAUUACAGAAAUGUAGUCCACGAGGAGGAGAUUUAGCGAAUUUUCGGGGGAAGCCUCCAAA [C16U U31C G32C G44A U49G C61G U65A]	< 1e-05	< 1e-05	–
